Results from article PMC3898117 (Biochemical Journal, 2013).

Biological target: recombinant RNMT (RNA guanine-7 methyltransferase) (UniProt O43148 1-476)
Assay: cell-based or functional assay

Chain of recombinant RNMT (RNA guanine-7 methyltransferase) (O43148 whole entry): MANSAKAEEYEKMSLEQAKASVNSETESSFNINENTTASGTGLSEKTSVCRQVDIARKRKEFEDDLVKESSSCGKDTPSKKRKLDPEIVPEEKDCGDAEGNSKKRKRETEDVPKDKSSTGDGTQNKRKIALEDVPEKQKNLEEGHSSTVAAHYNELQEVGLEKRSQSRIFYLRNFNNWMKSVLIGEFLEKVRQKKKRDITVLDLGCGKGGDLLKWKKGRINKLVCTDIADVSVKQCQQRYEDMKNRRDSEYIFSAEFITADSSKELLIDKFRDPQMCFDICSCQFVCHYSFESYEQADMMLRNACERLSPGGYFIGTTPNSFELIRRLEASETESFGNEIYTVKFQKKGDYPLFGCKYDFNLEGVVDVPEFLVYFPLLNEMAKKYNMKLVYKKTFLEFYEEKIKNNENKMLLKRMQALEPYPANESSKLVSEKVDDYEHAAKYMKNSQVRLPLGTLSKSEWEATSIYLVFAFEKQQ

B1: GST–RAM 1–55 (domain or fragment, human, UniProt Q9BTL3 1-55, looked up)
chain: MTDTAEAVPKFEEMFASRFTENDKEYQEYLKRPPESPPIVEEWNSRAGGNQRNRG
in vitro cap methyltransferase activity of 15 nM RNMT pre-incubated with 15 nM GST–RAM 1–55, compared with GST control: > 5 fold
